According to article PMC4543561:

What was measured:
purified protein [1] = substrate: C[C@H](CCC(=O)O)[C@H]1CC[C@H]2[C@@H]3CC[C@@H]4C[C@H](O)CC[C@]4(C)[C@H]3C[C@H](O)[C@]12C; experiment: purified protein; details: oxidation, 10 mM MOPS pH 7.0, 37 °C
purified protein [2] = substrate: C[C@H](CCC(=O)O)[C@H]1CC[C@H]2[C@@H]3CC[C@@H]4CC(=O)CC[C@]4(C)[C@H]3C[C@H](O)[C@]12C; experiment: purified protein; details: reduction, 10 mM MOPS pH 7.0, 37 °C

B1: Rumgna_02133 (Mediterraneibacter gnavus ATCC 29149) (protein)
chain: MFMMLKNKVAIVTGGTRGIGFAVVKKFIENGAAVSLWGSRQETVDQALEQLKELYPDAKISGKYPSLKDTAQVTAMINQVKEEFGAVDILVNNAGISQSTSFYNYQPEEFQKIVDLNVTAVFNCSQAAAKIMKEQGGGVILNTSSMVSIYGQPSGCGYPASKFAVNGLTKSLARELGCDNIRVNAVAPGITRTDMVAALPEAVIKPLIATIPLGRVGEPEDIANAFLFLASDMASYVTGEILSVDGAARS
Protein B1 has a Km (purified protein [1]; cofactor NADP+) of 369 ± 30 µM and a kcat (purified protein [1]; cofactor NADP+) of 1.66 ± 0.0333 s⁻¹.

B2: Elen_1325 (Eggerthella lenta DSM 2243) (protein)
chain: MSEARHNPVLAGQTAVITGGASGIGKSIVQRFLEAGASCLAADLNEEALAALKQELAEYGDKLDVVKVDVSNRDDVEGMVDRAVQTFGQMDIIVNNAGIMDNLLPIAEMDDDVWERLMKVNLNSVMYGTRKAVRYFMERGEGGVIINTASLSGLCAGRGGCAYTASKFAVVGLTKNVAFMYADTGIRCNAICPGNTQTNIGVGMRQPSERGMAKATTGYAGATRSGTPEEISAAAAFLASDQAGFINGETLTIDGGWSAY
B2 gave a Km (purified protein [2]; cofactor NADH) of 2630 ± 365 µM and a kcat (purified protein [2]; cofactor NADH) of 29.2 ± 1.1 s⁻¹.

B3: Rumgna_00694 (Mediterraneibacter gnavus ATCC 29149) (protein)
chain: MNFGGFIMGRFDEKIMLVTGATSGIGRAVAIRAAKEGATVVAVGRNEERGAAVVAAMEEAGGKGEFMKCDVSNKDAVKALFAEIQEKYGKLDVAVNNAGIVGASKTVEELEDDDWFQVIDANLNSCFFCCREEVKLMQPSGGAIVNVSSVAGMRGFPSAAAYVASKHAVSGLTKAVAVDYATKGITCNAICPAGTDTPLTERSSADIKTRMAEIAAQGKDPMEWLKNSMLSGKTETLQKKNATPEEQAATILYFASDEARHITGSIVASDGGFTTY
Work on B3 yielded a Km (purified protein [2]; cofactor NADPH) of 56.0 ± 5.6 µM and a kcat (purified protein [2]; cofactor NADPH) of 157 ± 4.53 s⁻¹.

B4: Elen_0198 (Eggerthella lenta DSM 2243) (protein)
chain: MYDDLKGKTVVVTGSSKGLGAAMARRFGAEGMNVVANYRSDEEGARETVRAIEEAGGAAAAVQADVSKNECVDALFDAAMFSFGGVDIWVNNAGIEVASPSDRKSIEEWQRVIDVNLTGVFAGCRRAIDHFLDRKMPGVIINLSSVHEIIPWPHFADYAASKAGVGMLTKTLALEYADRGIRVNAIAPGAMNTPINAEKFADPEARAATERLIPMGYVGAPEDVAAAAAWLASDQASYVTGTTLFVDGGMTLYPGFQFGQG
With B4 the Km (purified protein [2]; cofactor NADH) was 2660 ± 539 µM and the kcat (purified protein [2]; cofactor NADH) was 9.73 ± 0.583 s⁻¹.

B5: Elen_0690 (Eggerthella lenta DSM 2243) (protein)
chain: MGIYVITGATSGIGAKTAEILRERGHEVVNIDLNGGDINANLATKEGRAGAIAELHERFPEGIDAMICNAGVSGGKVPISLIISLNYFGATEMARGVFDLLEKKGGSCVVTSSNSIAQGAARMDVAGMLNNHADEDRILELVKDVDPAIGHVYYASTKYALARWVRRMSPDWGSRGVRLNAIAPGNVRTAMTANMLPEQRAAMEAIPVPTHFGEEPLMDPVEIANAMAFIASPEASGINGVVLFVDGGTDALLNSEKVY
B5 gave a Km (purified protein [1]; cofactor NAD+) of 1280 ± 88 µM and a kcat (purified protein [1]; cofactor NAD+) of 4.85 ± 0.117 s⁻¹.
